Data on one molecule can be found in patent publication US20240398949A1 (OSLO UNIVERSITETSSYKEHUS HF, published 2024).

One experiment deals with T1, peptide 6 (FIGURE 3 d/e).
T1 peptide: LSYMPIWKFPDEEGA
The experiment in a line: peptide array on cellulose membrane, truncation series, signal intensity (area under curve), duplicate spots.

The next experiment concerns the target T2, peptide 2 (FIGURE 3 d/e).
T2 peptide: VKPDLSYMPIWKFPDEEGA
The description is as above.

The target of experiment [1] is T3, peptide 15 (FIGURE 3 d/e).
T3 construct: also called PDEEGA
T3 peptide: PDEEGA
The description is as above.

In another experiment the target is T4, full-length HER2 (Homo sapiens (Human), UniProt P04626 23-1255).
T4 construct: Endogenous HER2 on cell lines
The experiment in a line: flow cytometry on cell lines expressing full-length HER2, goat anti-rat-PE secondary. On the procedure:
Cells were washed, pelleted down and resuspended in 100 μl FACS buffer (containing phosphate-buffered saline (PBS), pH 7, 2% FBS, and 2 mM EDTA). […] Cells were washed twice, resuspended in 100 μL FACS buffer containing secondary antibody goat anti-rat-PE (0.26 μg/ml) and Fixable Viability Dye eFluor™ 780 and incubated for 30 minutes in the dark at 4° C. Cells were washed, resuspended in 200 μL FACS buffer, and analyzed on a LSR II flow cytometer (BD Biosciences, Franklin Lakes, NJ, USA). Data were analyzed with FlowJo software (v10.7.1, FlowJo LLC).

The target in experiment [2] is T5, peptide 32 (FIGURE 3 d/e).
T5 construct: marked WK under the bar
T5 peptide: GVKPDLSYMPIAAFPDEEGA
As to the kind of experiment: peptide array on cellulose membrane, double-alanine substitution series, signal intensity (area under curve), duplicate spots.

Experiment [3] deals with T6, peptide 38 (FIGURE 3 d/e).
T6 peptide: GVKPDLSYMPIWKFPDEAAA
The description is as above.

The target of experiment [4] is T7, peptide 26 (FIGURE 3 d/e).
T7 peptide: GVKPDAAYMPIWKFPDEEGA
The experiment is described as above.

Experiment [5] has as its target T8, peptide 31 (FIGURE 3 d/e).
T8 construct: marked IW under the bar
T8 peptide: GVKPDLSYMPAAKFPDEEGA
Described as above.

In experiment [6] the target is T9, peptide 24 (FIGURE 3 d/e).
T9 peptide: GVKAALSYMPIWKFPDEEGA
The description is as above.

Experiment [7] deals with T10, peptide 36 (FIGURE 3 d/e).
T10 construct: marked DE under the bar
T10 peptide: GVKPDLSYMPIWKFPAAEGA
The description is as above.

Experiment [8] concerns the target T11, peptide 29 (FIGURE 3 d/e).
T11 construct: marked MP under the bar
T11 peptide: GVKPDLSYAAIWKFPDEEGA
The experiment is described as above.

Experiment [9] has as its target T12, peptide 28 (FIGURE 3 d/e).
T12 peptide: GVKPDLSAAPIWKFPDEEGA
The experiment is described as above.

Experiment [10] deals with T13, peptide 33 (FIGURE 3 d/e).
T13 construct: marked KF under the bar
T13 peptide: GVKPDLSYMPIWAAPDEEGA
Described as above.

Experiment [11] addresses T14, peptide 34 (FIGURE 3 d/e).
T14 construct: marked FP under the bar
T14 peptide: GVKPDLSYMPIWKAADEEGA
Described as above.

Experiment [12] has as its target T15, peptide 25 (FIGURE 3 d/e).
T15 peptide: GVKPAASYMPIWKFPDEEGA
The experiment is described as above.

For experiment [13], the target named is T16, peptide 30 (FIGURE 3 d/e).
T16 construct: marked PI under the bar
T16 peptide: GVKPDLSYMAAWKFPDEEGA
The description is as above.

Experiment [14] deals with T17, peptide 21 (FIGURE 3 d/e).
T17 peptide: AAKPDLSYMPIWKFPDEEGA
The description is as above.

Experiment [15] deals with T18, peptide 22 (FIGURE 3 d/e).
T18 peptide: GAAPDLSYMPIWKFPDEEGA
The description is as above.

Experiment [16] addresses T19, peptide 23 (FIGURE 3 d/e).
T19 peptide: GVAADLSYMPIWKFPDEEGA
The experiment is described as above.

In experiment [17] the target is T20, peptide 39 (FIGURE 3 d/e).
T20 peptide: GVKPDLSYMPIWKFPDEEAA
The description is as above.

In experiment [18] the target is T21, peptide 35 (FIGURE 3 d/e).
T21 construct: marked PD under the bar
T21 peptide: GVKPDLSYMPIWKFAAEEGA
Described as above.

Experiment [19] deals with T22, peptide 27 (FIGURE 3 d/e).
T22 peptide: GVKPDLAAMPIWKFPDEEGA
Described as above.

B1: Oslo-2 antibody (monoclonal antibody against p95HER2) (antibody, V domains shown)
VH: EVQILETGGGLVKPGGSLRLSCATSGFNFNDYFMNWVRQAPGKGLEWIAQIRNKNYNYATYFAESLEGRFTISRDDSKSSVYLQVNSLRAEDTALYYCTELRYDYWGQGVMVTVSS
VL: DIVMTQSPFSLAVSEGEMVTINCKSSQSLLSSGNQKNNLAWYQQKPGQSPKLLIYYASTRQSGVPDRFIGSGSGTDFTLTISDVQAEDLADYYCLQHYSSPYTFGAGTKLELK
notes: Monoclonal antibody from a rat hybridoma (mClone 1), detected with goat anti-rat-PE; also called the antibody of interest; the antibody
As for B1, the binding result with peptide 6 (FIGURE 3 d/e) is given as “binds”; in the experiment with peptide 2 (FIGURE 3 d/e), “binds”; in [1] it was “no binding”; with full-length HER2, “no binding (tested: 10 µg/ml (not on the sheet))”; in experiment [2] it was “no binding”; in experiment [3] it was “binds”. Further, the binding result in experiment [4] is on record as “binds”; in experiment [5] it was “no binding”; in experiment [6], “binds”; in experiment [7] it was “binds”; in experiment [8], “binds”; in experiment [9], “binds”. Moreover, the binding result in experiment [10], in experiment [11], in experiment [12], in experiment [13], in experiment [14] and in experiment [15] was “binds” in each case. In addition, the binding result in [16], in experiment [17], in experiment [18] and in experiment [19] was “binds” each time.
